From US11161912B2, “Heparanase-neutralizing monoclonal antibodies” (Technion Research & Development Foundation Limited, priority 2015, dated 2021)

Target: T1, recombinant active heparanase (Homo sapiens, UniProt Q9Y251, DEL111-157/INS109GSGSG)
T1 sequence (Q9Y251 with tags, fused parts or gaps INS109GSGSG/DEL111-157): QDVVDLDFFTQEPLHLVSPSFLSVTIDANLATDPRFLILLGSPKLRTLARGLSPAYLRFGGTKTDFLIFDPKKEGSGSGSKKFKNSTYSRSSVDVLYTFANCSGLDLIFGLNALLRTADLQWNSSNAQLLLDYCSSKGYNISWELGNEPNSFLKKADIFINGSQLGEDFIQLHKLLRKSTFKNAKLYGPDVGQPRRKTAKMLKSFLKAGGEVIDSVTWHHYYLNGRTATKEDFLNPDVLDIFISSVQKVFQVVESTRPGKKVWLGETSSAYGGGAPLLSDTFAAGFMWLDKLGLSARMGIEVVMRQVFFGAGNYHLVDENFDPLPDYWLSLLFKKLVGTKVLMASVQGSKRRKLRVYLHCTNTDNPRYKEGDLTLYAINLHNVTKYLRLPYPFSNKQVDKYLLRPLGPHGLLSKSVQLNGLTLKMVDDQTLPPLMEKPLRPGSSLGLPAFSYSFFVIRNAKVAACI
Experiment: Heparanase enzymatic activity on 35S-labelled ECM, enzyme pre-incubated with antibody
Type: biochemical
Conditions: antibody 2 μg/ml, heparanase 200 ng, pre-incubated 2 h on ice
Procedure: Cell lysates, heparanase activity and protein blotting. Preparation of cell lysates, protein blotting, and measurement of heparanase enzymatic activity were carried out as described (Vlodaysky I, et al. 1999, Nature Med 5(7):793-802; Arvatz et at, 2011, FASEB J 24(12):4969-4976). […] Likewise, cell lysates or tumor extracts were incubated (12 h, 37° C., pH 6.0) with the labeled ECM and sulfate labeled degradation fragments released into the incubation medium were analyzed by gel filtration on a Sepharose CL-6B column. Degradation fragments of HS side chains are eluted from Sepharose 6B at 0.5<Kav<0.8 (peak II, fractions 17-30). Nearly intact sulfate labeled HSPGs are eluted just after the void volume (Kav<0.2, peak I, fractions 1-10). […]
FIG. 2A. […] The mixture was then applied onto dishes coated with ^35S-labeled ECM and heparanase enzymatic activity was determined as described under “Materials and Methods”. […] Blood vessels density was quantified by counting the number of CD31-positive vessels per field and is presented graphically at the right second panel. At least 25 fields of each treatment were counted. […]
FIG. 3A. […] The mixture was then applied onto ^35S-labeled ECM-coated dishes and heparanase activity was determined as described above (lower panel). […] Quantification of the extent of CD45 staining is shown graphically in the lower panel. […]

B1: mAb 9E8: monoclonal IgM raised against KKDC peptide (Lys158-Asn171) of heparanase; VH SEQ ID NO: 7, VL SEQ ID NO: 8 (antibody)
VH: EVKLLESGGGLVQPGGSLKLSCAASGFDFSRYWMSWVRQAPGKGLEWIGEINPDSSTINYTPSLKDKFIISRDNAKNTLYLQMSKVRSEDTALYYCARRGYEGNYAMDYWGQGTSVTVSSESQSFPNVFPLVSCESPLSDKNLVAMGCLAR
VL: DIVMTQAAPSVPVTPGESVSISCRSSKSLLHSNGNTYLYWFLQRPGQSPQLLIYRMSNLASGVPDRFSGSGSGTAFTLRISRVEAEDVGVYYCMQHLEYPFTFGSGTKLEIKRADAAPTVSIFPPSSEQLTSGGASVVCFL
modifications: IgM constant regions
neutralization of heparanase enzymatic activity: neutralizes heparanase enzymatic activity to magnitude comparable with the polyclonal antibody #1453
